Assay results as given in the supplement of paper PMC9112550, “Optimization of the antimicrobial peptide Bac7 by deep mutational scanning” (BMC Biology, 2022).

Test system: Escherichia coli TOP10
Assay: shrunken log2 fold change of peptide-encoding DNA abundance (4.5 h post-induction vs induction); higher = less antimicrobial activity (less host growth inhibition)
Conditions: time post-induction: 4.5 h; library: site-saturation at positions 5, 18, 19, 20
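Further: peptides expressed intracellularly from a pBAD plasmid library in pooled LB shake-flask culture, induced with 0.3% L-arabinose, DNA abundance read by NGS, three biological replicates, DESeq2 with apeglm shrinkage.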

Sequence | shrunken log2 fold change
RRIRARPPRLPRPRPRPCTIPRP | -0.000283
RRIRARPPRLPRPRPRPCTQPRP | 0.148
RRIRARPPRLPRPRPRPCTRPRP | -0.00176
RRIRARPPRLPRPRPRPCVHPRP | 1.06
RRIRARPPRLPRPRPRPCVMPRP | -0.0813
RRIRARPPRLPRPRPRPCVYPRP | 0.121
RRIRARPPRLPRPRPRPCWEPRP | 0.755
RRIRARPPRLPRPRPRPCWTPRP | 0.01
RRIRARPPRLPRPRPRPCYLPRP | -0.262
RRIRARPPRLPRPRPRPCYMPRP | -0.0886
RRIRARPPRLPRPRPRPDALPRP | 0.625
RRIRARPPRLPRPRPRPDCVPRP | 0.813
RRIRARPPRLPRPRPRPDDEPRP | 1.43
RRIRARPPRLPRPRPRPDEMPRP | 0.546
RRIRARPPRLPRPRPRPDFEPRP | 0.661
RRIRARPPRLPRPRPRPDGHPRP | 0.0106
RRIRARPPRLPRPRPRPDHGPRP | -0.144
RRIRARPPRLPRPRPRPDHKPRP | -0.312
RRIRARPPRLPRPRPRPDIEPRP | -0.0212
RRIRARPPRLPRPRPRPDLHPRP | 0.474
RRIRARPPRLPRPRPRPDLWPRP | 1.51
RRIRARPPRLPRPRPRPDMNPRP | 0.31
RRIRARPPRLPRPRPRPDNCPRP | -0.153
RRIRARPPRLPRPRPRPDNLPRP | -0.0846
RRIRARPPRLPRPRPRPDPPPRP | 0.901
RRIRARPPRLPRPRPRPDPYPRP | -0.169
RRIRARPPRLPRPRPRPDQIPRP | 0.327
RRIRARPPRLPRPRPRPDRDPRP | -0.0499

Sequence | shrunken log2 fold change
RRIRARPPRLPRPRPRPDRIPRP | -0.00136
RRIRARPPRLPRPRPRPDTKPRP | 0.0293
RRIRARPPRLPRPRPRPDTPPRP | 0.331
RRIRARPPRLPRPRPRPDVHPRP | 0.196
RRIRARPPRLPRPRPRPDWHPRP | 0.136
RRIRARPPRLPRPRPRPDWKPRP | -0.108
RRIRARPPRLPRPRPRPDYIPRP | 0.00625
RRIRARPPRLPRPRPRPDYNPRP | -0.57
RRIRARPPRLPRPRPRPEAEPRP | 1.61
RRIRARPPRLPRPRPRPEAVPRP | 1.59
RRIRARPPRLPRPRPRPEGIPRP | 0.0659
RRIRARPPRLPRPRPRPEHDPRP | -0.0905
RRIRARPPRLPRPRPRPEHQPRP | 0.399
RRIRARPPRLPRPRPRPEHRPRP | 0.0198
RRIRARPPRLPRPRPRPEIWPRP | 1.55
RRIRARPPRLPRPRPRPEKIPRP | 0.649
RRIRARPPRLPRPRPRPEKLPRP | 0.758
RRIRARPPRLPRPRPRPELAPRP | 1.39
RRIRARPPRLPRPRPRPELQPRP | 0.731
RRIRARPPRLPRPRPRPEQEPRP | 0.00961
RRIRARPPRLPRPRPRPEQHPRP | 0.562
RRIRARPPRLPRPRPRPEQPPRP | 0.343
RRIRARPPRLPRPRPRPERCPRP | 1.09
RRIRARPPRLPRPRPRPERQPRP | 1.13
RRIRARPPRLPRPRPRPESKPRP | 0.015
RRIRARPPRLPRPRPRPETFPRP | -0.0526
RRIRARPPRLPRPRPRPEVEPRP | 1.3
